# Patent US20230265217A1 (TWIST BIOSCIENCE, published 2023)
# Like-named read-outs stand apart in the source and are kept apart here.
# Columns and labels:
# SARS-CoV-2 S1 (Acro) [1] = target: T1, SARS-CoV-2 S1 (Acro) (SARS-CoV-2, UniProt P0DTC2 16-685); experiment: Carterra SPR
# T1 construct: also called Acro S1
# SARS-CoV-2 S1 (Acro) [2] = target: T1, SARS-CoV-2 S1 (Acro); experiment: Carterra SPR; remark: listed apart in the source
# SARS-CoV-2 S1 monomer = SARS-CoV-2 S1 monomer (SARS-CoV-2, UniProt P0DTC2 16-685); experiment: binding kinetics, Carterra SPR
Binder,Kd (SARS-CoV-2 S1 (Acro) [1]),Kd (SARS-CoV-2 S1 (Acro) [2]),also measured
"3-28 (VHH, not shown: a dimerising Fc or GST) VHH: EVQLVESGGGLVQPGGSLRLSCAASGFTFRRYDMGWFRQAPGKEREFVSAISGGLAYYADSVKGRFTISADNSKNTAYLQMNSLKPEDTAVYYCAVDLSGDAVYDWGQGTLVTVSS",0.0522 µM,0.0522 µM,
"7-09 (VHH, also called 7-9) VHH: EVQLVESGGGLVQPGGSLRLSCAASGGTFSSIGMGWFRQAPGKEREFVAAISWDGGATAYADSVKGRFTISADNSKNTAYLQMNSLKPEDTAVYYCAKEDVGKPFDWGQGTLVTVSS",0.0241 µM,0.0241 µM,
5A-1 (VHH) VHH: EVQLVESGGGLVQPGGSLRLSCAASGGTFSSIGMGWFRQAPGKEREFVAAISWDGGATAYADSVKGRFTISADNSKNTAYLQMNSLKPEDTAVYYCAKEDVGKPFDWGQGTLVTVSS,,0.0066 µM,
"8-3 (VHH, not shown: a dimerising Fc or GST) VHH: EVQLVESGGGLVQPGGSLRLSCAASGTTLDYYAMGWFRQAPGKEREFVAAISWSGGSTAYADSVKGRFTISADNSKNTAYLQMNSLKPEDTAVYYCAREDYYDSSGYSWGQGTLVTVSS",18.4 µM,,
"7-31 (VHH, not shown: a dimerising Fc or GST) VHH: EVQLVESGGGLVQPGGSLRLSCAASGFTFSNYSMGWFRQAPGKEREFVAAIHWNGDSTAYADSVKGRFTISADNSKNTAYLQMNSLKPEDTAVYYCAAQTEDSAQYIWGQGTLVTVSS",0.228 µM,,
"7-6 (VHH, not shown: a dimerising Fc or GST) VHH: EVQLVESGGGLVQPGGSLRLSCAASGRIFYPMGWFRQAPGKEREFVAAVRWSSTGIYYTQYADSVKGRFTISADNSKNTAYLQMNSLKPEDTAVYYCAAALSEVWRGSENLREGYDWGQGTLVTVSS",0.0424 µM,,
"8-10 (VHH, not shown: a dimerising Fc or GST) VHH: EVQLVESGGGLVQPGGSLRLSCAASGFIGNYHAMGWFRQAPGKEREFVAAVTWSGGTTNYADSVKGRFTISADNSKNTAYLQMNSLKPEDTAVYYCAREGYYYDSSGYPYYFDYWGQGTLVTVSS",658 µM,,
"3-17 (VHH, not shown: a dimerising Fc or GST) VHH: EVQLVESGGGLVQPGGSLRLSCAASGRTSSSAVMGWFRQAPGKEREFVAAINRGGSTIYVDSVKGRFTISADNSKNTAYLQMNSLKPEDTAVYYCATGPYRSYFARSYLWGQGTLVTVSS",0.141 µM,,
"7-29 (VHH, not shown: a dimerising Fc or GST) VHH: EVQLVESGGGLVQPGGSLRLSCAASGRTHSIYPMGWFRQAPGKEREFVASITSYGDTNYADSVKGRFTISADNSKNTAYLQMNSLKPEDTAVYYCAARRWIPPGPIWGQGTLVTVSS",0.0312 µM,,
"7-30 (VHH, not shown: a dimerising Fc or GST) VHH: EVQLVESGGGLVQPGGSLRLSCAASGRTFSMHAMGWFRQAPGKEREFVASISSQGRTNYADSVKGRFTISADNSKNTAYLQMNSLKPEDTAVYYCAAEVRNGSDYLPIDWGQGTLVTVSS",0.0487 µM,0.0487 µM,
"7-17 (VHH, not shown: a dimerising Fc or GST) VHH: EVQLVESGGGLVQPGGSLRLSCAASGFSLDYYGMGWFRQAPGKEREFVAAITSGGTPHYADSVKGRFTISADNSKNTAYLQMNSLKPEDTAVYYCASAYNPGIGYDWGQGTLVTVSS",0.0604 µM,,
"7-24 (VHH, not shown: a dimerising Fc or GST) VHH: EVQLVESGGGLVQPGGSLRLSCAASGFTFSRHAMNWFRQAPGKEREFVSTITGSGGSTNYADSVKGRFTISADNSKNTAYLQMNSLKPEDTAVYYCAREVGLYYYGSGSSSRRLLGRIDYYFDYWGQGTLVTVSS",4260 µM,,
7-14 (VHH) VHH: EVQLVESGGGLVQPGGSLRLSCAASGSTFSINAMGWFRQAPGKEREFVAGISRGGTTNYADSVKGRFTISADNSKNTAYLQMNSLKPEDTAVYYCAADGVPEYSDYASGPVWGQGTLVTVSS,0.0208 µM,0.0208 µM,Kd (SARS-CoV-2 S1 monomer): 0.00957 µM; koff (SARS-CoV-2 S1 monomer): 0.000404 s⁻¹; kon (SARS-CoV-2 S1 monomer): 42200 M⁻¹ s⁻¹
7-32 (VHH) VHH: EVQLVESGGGLVQPGGSLRLSCAASGSTFSVNAMGWFRQAPGKEREFVAGVTRGGYTNYADSVKGRFTISADNSKNTAYLQMNSLKPEDTAVYYCAADGVPEYSDYASGPVWGQGTLVTVSS,0.0485 µM,,
"8-06 (VHH, not shown: a dimerising Fc or GST, also called 8-6) VHH: EVQLVESGGGLVQPGGSLRLSCAASGFTFDYYAMGWFRQAPGKEREFVSAIDSEGRTSYADSVKGRFTISADNSKNTAYLQMNSLKPEDTAVYYCARWGPFDIWGQGTLVTVSS",0.0377 µM,,
6A-3 (VHH) VHH: EVQLVESGGGLVQPGGSLRLSCAASGFTFSPSWMGWFRQAPGKEREFVATINEYGGRNYADSVKGRFTISADNSKNTAYLQMNSLKPEDTAVYYCARVDRDFDYWGQGTLVTVSS,,0.0315 µM,
6A-63 (VHH) VHH: EVQLVESGGGLVQPGGSLRLSCAASGQTFNMGWFRQAPGKEREFVAAIGSGGSTSYADSVKGRFTISADNSKNTAYLQMNSLKPEDTAVYYCWRLGNDYFDYWGQGTLVTVSS,,0.0464 µM,
7-21 (VHH) VHH: EVQLVESGGGLVQPGGSLRLSCAASGRTISRYTMGWFRQAPGKEREFVASITSGGSTAYADSVKGRFTISADNSKNTAYLQMNSLKPEDTAVYYCAKEDVGKPFDWGQGTLVTVSS,0.0271 µM,,
7-41 (VHH) VHH: EVQLVESGGGLVQPGGSLRLSCAASGRTFSTYVMGWFRQAPGKEREFVASISSRGITHYADSVKGRFTISADNSKNTAYLQMNSLKPEDTAVYYCAKEDVGKPFDWGQGTLVTVSS,0.0481 µM,,
7-45 (VHH) VHH: EVQLVESGGGLVQPGGSLRLSCAASGRTLSRYTMGWFRQAPGKEREFVASITSGGSTNYADSVKGRFTISADNSKNTAYLQMNSLKPEDTAVYYCAKEDVGKPFDWGQGTLVTVSS,0.0363 µM,,
7-40 (VHH) VHH: EVQLVESGGGLVQPGGSLRLSCAASGRTFRRYTMGWFRQAPGKEREFVASITKFGSTNYADSVKGRFTISADNSKNTAYLQMNSLKPEDTAVYYCAKEDVGKPFDWGQGTLVTVSS,85.6 µM,,
"7-22 (VHH, not shown: a dimerising Fc or GST) VHH: EVQLVESGGGLVQPGGSLRLSCAASGRTITRYTMGWFRQAPGKEREFVASITSGGSTAYADSVKGRFTISADNSKNTAYLQMNSLKPEDTAVYYCAKQDVGKPFDWGQGTLVTVSS",0.0409 µM,,
7-26 (VHH) VHH: EVQLVESGGGLVQPGGSLRLSCAASGSTFSINAMGWFRQAPGKEREFVAGITSSGGYTNYADSVKGRFTISADNSKNTAYLQMNSLKPEDTAVYYCAADGVPEYSDYASGPVWGQGTLVTVSS,0.0248 µM,0.0248 µM,Kd (SARS-CoV-2 S1 monomer): 0.00363 µM
"3-31 (VHH, also called 3-31_ExpiCHO) VHH: EVQLVESGGGLVQPGGSLRLSCAASGSTFSINAMGWFRQAPGKEREFVAGITSSGGYTNYADSVKGRFTISADNSKNTAYLQMNSLKPEDTAVYYCAADGVPEYSDYASGPVWGQGTLVTVSS",0.021 µM,0.021 µM,Kd (SARS-CoV-2 S1 monomer): 0.00591 µM
7-8 (VHH) VHH: EVQLVESGGGLVQPGGSLRLSCAASGSTFTINAMGWFRQAPGKEREFVSGISHNGGTTNYADSVKGRFTISADNSKNTAYLQMNSLKPEDTAVYYCAADGVPEYSDYASGPVWGQGTLVTVSS,0.0528 µM,,
7-37 (VHH) VHH: EVQLVESGGGLVQPGGSLRLSCAASGSTLSINAMGWFRQAPGKEREFVAGITRSGSVTNYADSVKGRFTISADNSKNTAYLQMNSLKPEDTAVYYCAADGVPEYSDYASGPVWGQGTLVTVSS,0.0216 µM,0.0216 µM,Kd (SARS-CoV-2 S1 monomer): 0.0171 µM; koff (SARS-CoV-2 S1 monomer): 0.000528 s⁻¹; kon (SARS-CoV-2 S1 monomer): 30800 M⁻¹ s⁻¹
"3-24 (VHH, not shown: a dimerising Fc or GST) VHH: EVQLVESGGGLVQPGGSLRLSCAASGINFSRYGMGWFRQAPGKEREFVASITYLGRTNYADSVKGRFTISADNSKNTAYLQMNSLKPEDTAVYYCALRVRPYGQYDWGQGTLVTVSS",,,binding result (SARS-CoV-2 S1 (Acro) [1]): no binding
